Results taken from the DeepSol protein solubility set.

assay: soluble on expression in E. coli; label from the status in PepcDB or PDB records

| Sequence | soluble on expression in E. coli |
| --- | --- |
| MNTTVEKQQIITSNTEQWKMYSKLEGKEYQIHISKPKQPAPDSGYPVIYVLDGNAFFQTFHEAVKIQSVRAEKTGVSPAIIVGVGYPIEGAFSGEERCYDFTPSVISKDAPLKPDGKPWPKTGGAHNFFTFIEEELKPQIEKNFEIDKGKQTLFGHSLGGLFALHILFTNLNAFQNYFISSPSIWWNNKSVLEKEENLIIELNNAKFETGVFLTVGSLEREHMVVGANELSERLLQVNHDKLKFKFYEAEGENHASVVPTSLSKGLRFISYV | soluble |
| MNVDARVGVAVDGAQSALNTATTVHSSVVMTQIKPQAKLGTFQNLLAGGIAGAISKTCTAPLARLTILFQLQGMQSEGAVLSRPNLRREASRIINEEGYRAFWKGNLVTVVHRIPYTAVNFYAYEKYNLFFNSNPVVQSFIGNTSGNPIVHFVSGGLAGITAATATYPLDLVRTRLAAQRNAIYYQGIEHTFRTICREEGILGLYKGLGATLLGVGPSLAINFAAYESMKLFWHSHRPNDSDLVVSLVSGGLAGAVSSTDDKLFDAHNYVATYPLDLVRRRMQVEGAGGRARVYNTGLFGTFKHIFKSEGFKGIYRGILPEYYKVVPGVGIVFMTYDALRRLLTSLPD | soluble |
| MNVLFTSVPQEDVPFYQEALKDLSLKIYTTDVSKVPENELKKAELISVFVYDKLTEELLSKMPRLKLIHTRSVGFDHIDLDYCKKKGILVTHIPAYSPESVAEHTFAMILTLVKRLKRIEDRVKKLNFSQDSEILARELNRLTLGVIGTGRIGSRVAMYGLAFGMKVLCYDVVKREDLKEKGCVYTSLDELLKESDVISLHVPYTKETHHMINEERISLMKDGVYLINTARGKVVDTDALYRAYQRGKFSGLGLDVFEDEEILILKKYTEGKATDKNLKILELACKDNVIITPHIAYYTDKSLERIREETVKVVKAFVKGDLEQIKGNFVVGPS | soluble |
| MNVTSVTSEDGVKEFEKIVVEPEDIEYVEIPADAKNVDLTRHRIKEIGDYSWLTHVEHFSFRWNLIKKIENLDCLTTLTHLEFYDNQITKVENLDSLVNLESLDLSFNRITKIENLEKLTKLKTLFFVHNKITKIEGLDTLTELEYLELGDNRIAKIENLDNNLKLDRLFLGANQIRLIENVDHLKKLTVLSLPANAITVVDNISGLHNLKEIYLAQNGIKYVCGIDEHLPLEILDFNQNRLEKVENIHQLKTLTDFWARGNKLDNWSIMDELVELPQLNSVYLDFNPIASVDTYRGKVIHLLQQITRLDGTQCREHSMLRPPKEEKNETELSRVVLDNPSDDHPTESV | not soluble |
| MNWPLLYDMQRMLDRRIETEHGLMEEDLFARKQLAFLVELGELANETRCFKFWSIKPPAPAERVLEEYVDGLHFLLSLGLECGLFYEENEAPSAGRPLVEQFLAVFRAAERFGETRARGEYDALFAEYWRLGVALGFSSDDIEAAYRRKNEVNHKRQNERY | not soluble |
| MNYFFCADESRQVNEDPIGSGCRRQCYVLIECPPPWMANEFDSKAVPANLRSLENEFYAVEPDGILLFIYSEELRQNYLTRILIFRPMMGYSGGYIKQEIHVSSLEDVAIVLKDWLAGKDIADTDINPHTRDILVCTHGTHDKCCAKYGIPFYRQAKNIVADLAVESVRIWQSSHFSGHRFAPTILDLPQGRYYGKLDCQSFTNILTYTGDINCLKSIYRGWGILPFPAQVMEGELIFLHGWQWFNYKVSCCFIEQSEDECFNRIEISAILPDGDIKTYQADVVEDESKSIYLIGDCHGIEPELIPKYSVNNLIQII | not soluble |
| MNYGFVKVAAAVPHVKVADCKFNVERIESQIAIAEGKGVQIIVFPEMSITGYTCGDLFGQQILLEEAEMGLMQILNNTRQLDIISIVGMPVVVNSTVINAAVVIQKGKVLGVAAKTYLPNYKEFYEQRWFTSALQLTEDTVRLCGQIVPIGANLLFETSDTTFGIEICEDLWATIPPSSSLALQGAEIIFNMSADNEGIGKHHYLCSLISQQSARCIAGYVFSSCGFGESTTDVVFAGNGLIYENGSLLARSKRFCMEEQLIISEIDVERIRAERRINTTFAASQGNPGDKKAISVATEFVNSKELTLTRDFNSHPFVPQGAELDEHCEEVFSIQIAGLAQRLVHTKAKTAVVGISGGLDSTLALLVCVKTFDKLGLPRKDILGVTMPGFGTTDRTYNNAIDLMKSLGISIREISIQDACIQHFKDIDHDINVHDVTYENSQARERTQILMDIANQTWGMVVGTGDLSELALGWATYNGDHMSMYGVNGSIPKTLVKYLVQWVAENDMDEDAKATLLDIVDTPISPELIPADENGEIKQKTEDLVGPYELHDFFLYYFLRFGFRPSKIYYLANIAFKDVYDKETIKKWLSTFFRRFFNQQFKRSCLPDGPKVGSISISPRGDWRMPSDASSTIWLKEIEDLLEHHHHHH | not soluble |
| MNYIQLQRFNMSKVASIVDVLQGKVAIGETVTVRGWVRTRRDSKAGLSFLAVYDGSCFDPIQAIINNDIENYESEILRLTTGCSVIVTGKVVESPAEGQAVELQAEKVEVTGFVEDPDTYPMAAKRHSIEYLREVAHLRPRTNIIGAVARVRHCLSQAIHRFFHEQGFYWVATPLITASDTEGAGEMFRVSTLDLENLPRSENGKVDFSQDFFGKESFLTVSGQLNGETYACALSKIYTFGPTFRAENSNTTRHLAEFWMVEPEVAFATLADNAKLAEDMLKYVFRAVLAERKDDLQFFEKHVDKDVITRLENFVNSDFAQIDYTDAIDVLLKSGKKFEFPVSWGIDLSSEHERFLAEEYFKSPVVVKNYPKDIKAFYMRLNDDEKTVAAMDVLAPGIGEIIGGSQREERLEVLDKRMEEMGLNPDDYWWYRDLRKYGSVPHSGFGLGFERLIVYVTGVQNIRDVIPFPRAPRNANFLEHHHHHH | soluble |
| MNYPLIFAENQRIETERLILRPVTLADAEDMYEYASDEETVRYVFLKNQTIAETRQNIAKFFMGEPLGKYGIEVKETGKMIGTIDLRVNETNNIGELGYVLNRTFWGNGYMPEAATALVELGFAKMKLMRIFALHDQDNPASGRVMEKIGFTYEGTLPNARISKGKIVTDVYRGMTLETWQNRQK | soluble |
| MNYYSEKIEVVKLADQVAAKLQQLIGSGEYKKGDKIPTEPELMARFGVGRSTVRESVRILANAGLLSVLQGKGTFVQDTTVVAEPLHQRLRRANNKELNEVRHMLEITMVQKAAENRTEKEVKQMRTLLNQRRRAIEEQLQDECLNADIAFHVVIAEASKNQVLIDLYKTFSKVISEYFQTEYPDTKAYKRSQALHEKLCDAIATKESKKAAEYMSQILSLD | not soluble |
| MPAAGQAPGPECPDVLIIGGGPAGCAAAIVLAQQGWAVTLLEKEQHPRFHIGESLLPMNIPILERLGVLEQVRDIGVLKRGADFPNDAGGYNTFRFSHALDAKADYAFQVPRAQFDQVLFARAREVGVDAREQVKVESVAFDGEQPVLQARGVDGVQQFRPRYLLDASGRDTFMGNRLKLKRANAKHQSAAVFSHFRGVTRRPGEDAGNISIYRHAHGWMWLIPLPDDVMSVGAVCYPDYMKTRKGDSEGFLLRTLALNPEVAARMADAERVAPVHATGNYAYECTRMSGPRWLLLGDAYTFVDPMFSSGVFLAMHSAERGAAMVDAVLRAPHREASLQRALSRELARGLSEFKWFIYRFTSPTMRALFAQPQNVWQVEQAVVAMLAGDVFDSPKVRRRLRVFRAIYSVTALSMLPRAWHAWRHRRRQARLGFDGDTLHRDAPLEHHHHHH | not soluble |
| MPAWAARLGASRDQQRALEEERSRTQAALQVMPHMLIELDADERLLRGHPGWLDRLPTLGPMAPGQGLQDFLPVDLATEVRRVLAEVETTGAPVSRDWQVRQAGARVWLAISAARLPPLA | not soluble |
| MPCRGLHAIPAGPPEFPELATIYVVCGDKLNVMIDAGVTNSIMDSSFLEKLDLVILTHIHIDHIGLLPEILDRYKNAKVMIKNGFKKFLTTEDGVRRLNESSEKVLGDLYYIYGEFTKIDPDKVVEVEGGEMIDIGDGKTLKIIYTPGHAKHHISVVSDDILFTGDSGGAYFNGAVIPTTPPPLDYDNYVNSLRLQISLKPKVVGLAHGGLVSPNILEQHLDQMLGKESFDIGEIDIGGIGGEILRKQVEVNLRGLNEALGRNKKTLLEHHHHHH | not soluble |
| MPEEKQKKSVLEKALKRIEENFGKGSIMILGDETQVQPVEVIPTGSLAIDIATGVGGYPRGRIVEIFGQESSGKTTLALHAIAEAQKMGGVAAFIDAEHALDPVYAKNLGVDLKSLLISQPDHGEQALEIVDELVRSGVVDLIVVDSVAALVPRAEIEGAMGDMQVGLQARLMSQALRKIAGSVNKSKAVVIFTNQIRMKIGVMFGSPETTTGGLALKFYATMRMEVRRGEPIKEGKDVIGNVISVKIVKNKVAPPFKTAQTYIIYGKGIDREYELFNIAVNEGIVDRKGSWYYYTTLKGEEVSLGQGSSNAVQFLKDNPEIAGEIERRIREKYGLLSVEKEEQRKEKKSSGEEAS | soluble |
| MPEITESERAYHLRKMKTRMQRVDVTGDGFISREDYELIAVRIAKIAKLSAEKAEETRQEFLRVADQLGLAPGVRISVEEAAVNATDSLLKMKGEEKAMAVIQSLIMYDCIDTDKDGYVSLPEFKAFLQAVGPDLTDDKAITCFNTLDFNKNGQISRDEFLVTVNDFLFGLEETALANAFYGDLVD | soluble |
| MPEPHPAPQPYTVAALYQFRALPDPAALRAELLALGERLELCGTLIVADEGINGTVAGSAAAIAELHAFLLASGFDRLEYKESQASEKPFKRYKVRLKKEIVTLGVPVAPREQVGTYLDPQAWNDLLADPEVIVVDTRNRYEVKAGTFQGAVDPEIDSFREFPAWVDEHLAGAEGKKIAMFCTGGIRCEKSTSLLLQKGFQDVYHLKGGILKYLEDVPQAQSRWDGECFVFDGRVTVGHGLQEGDAVMCHSCGWPLTAQERAHPQFEEGVSCEHCFDETTDVQKAAFRERQRMYEAGHLTLEHHHHHH | not soluble |
| MPEPTPTAYPVRLDELINAIKRVHSDVLDQLSDAVLAAEHLGEIADHLIGHFVDQARRSGASWSDIGKSMGVTKQAAQKRFVPRAEATTLDSNQGFRRFTPRARNAVVAAQNAAHGAASSEITPDHLLLGVLTDPAALATALLQQQEIDIATLRTAVTLPPAVTEPPQPIPFSGPARKVLELTFREALRLGHNYIGTEHLLLALLELEDGDGPLHRSGVDKSRAEADLITTLASLTGANAAGATDAGATDAG | soluble |
| MPFFANSDPMMSKLSQIQFADAPTLKGDKYPDVDAHRIIAPIISPIMEVFDQMKENQRARDQAEKIRKDREDHPLSTSRSLWEMFQRLQRPTTTTTEAPPLIERLFKPYIEPWQKQLDDFSKDMAGITLIPTTTTTPAPTTTTTPNFLEKSLSMFFPSLRRKPQSIPTLPPTTTPTPRLFDPEMFDRLFFKRDKRQATIAPAPKFDIFTVPPPPPLFQEWEKPILSLSNPFTLNPLMKMFTTPSPPQTLAPLPKIPEPNPYEIKKGLPEPQFKLQDPFYNPLFPSRKSKMFDFLAGGEAGRLLG | not soluble |
| MPFLPPLTPPTELYLGIQLPSPISILVNYLPVSQTPIETLRNLVYSCDINTLAIDEFMTWPSLLQPGSPFRPYFEVLVERGSIPAVYLEGVRQASNFVTVAQGLSVMTTVALSDPFACFATGLFLTCTGNHLDFLPISEKFWEMTPTLEAGHAVAEMVMYHISQLHTENARRWERSWRFVHLPSCVGQCTFHHGCRVCFFYWYAREMAIFY | soluble |
